Source: paper PMC10882061

Target: Env-K, stabilized HIV Env trimer of BG505 NFL2P gp140 with a C-terminal Peptide K (HIV-1 (BG505))
Assay: SEC; Sephacryl S-300 after lectin affinity; peaks of aggregates, trimers and monomers; pooled trimer fractions also run on BN-PAGE

“Env-K, stabilized HIV Env trimer of BG505 NFL2P gp140 with a C-terminal Peptide K” was tested, and the stoichiometry N was 3.
